Experimental data reported in US20110150894A1.

Molecular target: activated β1 integrin on bovine capillary endothelial (CE) cells (bovine) (UniProt P53712)
Assay: cell-based or functional assay

Sequence of activated β1 integrin on bovine capillary endothelial (CE) cells (bovine) (P53712 21-798): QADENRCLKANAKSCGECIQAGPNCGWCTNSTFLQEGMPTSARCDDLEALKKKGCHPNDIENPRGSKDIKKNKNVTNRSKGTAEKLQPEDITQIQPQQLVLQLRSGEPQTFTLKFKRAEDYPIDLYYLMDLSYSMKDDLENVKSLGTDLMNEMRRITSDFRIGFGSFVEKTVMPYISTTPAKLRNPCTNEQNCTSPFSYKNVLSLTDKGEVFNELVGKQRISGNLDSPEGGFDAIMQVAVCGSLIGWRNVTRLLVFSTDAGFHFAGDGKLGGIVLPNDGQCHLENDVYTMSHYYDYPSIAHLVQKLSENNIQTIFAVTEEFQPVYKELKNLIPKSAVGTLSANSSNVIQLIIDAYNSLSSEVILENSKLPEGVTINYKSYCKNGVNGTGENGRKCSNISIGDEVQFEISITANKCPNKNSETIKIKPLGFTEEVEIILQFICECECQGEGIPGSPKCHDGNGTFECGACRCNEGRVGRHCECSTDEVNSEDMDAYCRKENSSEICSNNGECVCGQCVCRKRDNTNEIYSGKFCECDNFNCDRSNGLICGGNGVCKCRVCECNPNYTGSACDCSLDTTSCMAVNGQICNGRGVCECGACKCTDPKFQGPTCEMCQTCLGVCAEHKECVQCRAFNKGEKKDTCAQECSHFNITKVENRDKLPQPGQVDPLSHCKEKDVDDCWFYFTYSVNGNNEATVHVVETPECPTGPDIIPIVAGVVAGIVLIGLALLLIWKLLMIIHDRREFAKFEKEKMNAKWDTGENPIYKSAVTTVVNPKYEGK

- decrease in strain-induced cell realignment: 70%
Substance: function-blocking anti-β1 integrin (P5D2) antibody
